Read-outs that look alike come from different tables or passages of the source.
B1: Archaerhodopsin 3 (protein)
chain: MDPIALQAGYDLLGDGRPETLWLGIGTLLMLIGTFYFLVRGWGVTDKDAREYYAVTILVPGIASAAYLSMFFGIGLTEVTVGGEMLDIYYARYADWLFTTPLLLLDLALLAKVDRVTIGTLVGVDALMIVTGLIGALSHTAIARYSWWLFSTICMIVVLYFLATSLRSAAKERGPEVASTFNTLTALVLVLWTAYPILWIIGTEGAGVVGLGIETLLFMVLDVTAKVGFGFILLRSRAILGDTEAPEPSAGADVSAAD
modifications: Halorubrum sodomense
notes: Microbial rhodopsin from Halorubrum sodomense, light-driven proton pump used as fluorescent voltage indicator; experiments used an Arch-eGFP fusion
B2: Arch D95N: Archaerhodopsin 3 with aspartic acid 95 mutated to asparagine; non-pumping voltage indicator (protein, UniProt P96787 7-258, looked up, variant D95N)
Archaerhodopsin-3: QAGYDLLGDGRPETLWLGIGTLLMLIGTFYFLVRGWGVTDKDAREYYAVTILVPGIASAAYLSMFFGIGLTEVTVGGEMLDIYYARYANWLFTTPLLLLDLALLAKVDRVTIGTLVGVDALMIVTGLIGALSHTAIARYSWWLFSTICMIVVLYFLATSLRSAAKERGPEVASTFNTLTALVLVLWTAYPILWIIGTEGAGVVGLGIETLLFMVLDVTAKVGFGFILLRSRAILGDTEAPEPSAGADVSAAD

Experiments:
[1] = Relative photostability of Arch and eGFP (photobleaching of Arch-eGFP fusion); format: physicochemical; conditions: measured in a 1:1 fusion with eGFP
Method: (3) Relative photostability of Arch and eGFP. To perform a direct comparison of photostability of Arch and eGFP the photobleaching of the Arch-eGFP fusion was studied. This strategy guaranteed a 1:1 stoichiometry of the two fluorophores, simplifying the analysis. The experiments were performed on permeabilized cells, in the microscope, with video recording as the cells photobleached. A movie of photobleaching of Arch was first recorded under 640 nm illumination; then on the same field of view photobleaching of eGFP under 488 nm illumination was recorded, with illumination intensity adjusted to yield approximately the same initial count rate as for Arch. Fluorescence background levels were obtained from nearby protein-free regions of each movie and were subtracted from the intensity of the protein-containing regions. The area under each photobleaching timetrace was calculated, yielding an estimate of the total number of detected photons from each fluorophore. The eGFP emission (lambda-max=509 nm) and the Arch emission (lambda-max=687 nm) were collected through different emission filters, so the raw counts were corrected for the transmission spectra of the filters and the wavelength-dependent quantum yield of the EMCCD camera. The result was that the relative number of photons emitted prior to photobleaching for eGFP:Arch WT was 3.9:1, and for eGFP:ArchD95N this ratio was 10:1.

[2] = test system: HEK cells; assay: Photocurrents under voltage clamp; format: cell-based; conditions: for Photocurrent: HEK cells clamped at V=0, 640 nm, 1800 W/cm^2
Method: Measurements of photocurrents were performed on HEK cells held in voltage clamp at 0 mV while being exposed to brief (200 ms) pulses of illumination at 640 nm at an intensity of 1800 W/cm^2.

[3] = Spectroscopic characterization of Arch WT and D95N (absorption, emission, extinction, quantum yield); format: physicochemical; conditions: for λmax em: Excitation at λ=532 nm; for ε633: assuming same peak extinction coefficient as Bacteriorhodopsin, 63,000 M^−1 cm^−1; for QY (fluorescence quantum yield): comparison to Alexa 647, excitation at λ=633 nm; for λmax abs: neutral pH
Method: Arch and its D95N mutant were expressed in E. coli. Briefly, E. coli (strain BL21, pet28b plasmid) was grown in 1 L of LB with 100 micrograms/mL kanamycin, to an O.D 600 of 0.4 at 37° C. All-trans retinal (5 micromolar) and inducer (IPTG 0.5 mM) were added and cells were grown for an additional 3.5 hours in the dark. Cells were harvested by centrifugation and resuspended in 50 mM Tris, 2 mM MgCl2 at pH 7.3 and lysed with a tip sonicator for 5 minutes. The lysate was centrifuged and the pellet was resuspended in PBS supplemented with 1.5% dodecyl maltoside (DM). The mixture was homogenized with a glass/Teflon Potter Elvehjem homogenizer and centrifuged again. The solubilized protein in the supernatant was used for experiments.
(§1) (2) Spectroscopic characterization of Arch WT and D95N. The absorption spectra of fractionated E. coli membranes containing Arch WT and D95N were determined using an Ocean Optics USB4000 spectrometer with a DT-MINI-2-GS light source (FIG. 8). The peak extinction coefficients of microbial rhodopsins vary across rhodopsin types from 48,000 to 63,000 M^−1 cm^−1. Due to the high homology between Arch and bacteriorhodopsin (BR), the BR extinction coefficient, 63,000 M^−1 cm^−1, was used for Arch. […] For Arch WT, 633 nm was in the tail of the absorption while for Arch D95N 633 nm lay halfway down the shoulder. The relative extinction coefficients of Arch WT and D95N at 633 nm was independent of the choice to use BR as the reference for the peak extinction coefficient. Absorption spectra for Arch WT and D95N were measured as a function of pH between pH 6 and 11.
The fluorescence emission spectra of Arch WT and D95N were determined using illumination with a 100 mW, 532 nm laser (Dragon Lasers, 532GLM100) or a 25 mW, 633 nm HeNe laser (Spectra-Physics) (FIG. 8). Scattered laser light was blocked with a 532 nm Raman notch filter (Omega Optical, XR03) or a 710/100 emission filter (Chroma), and fluorescence was collected perpendicular to the illumination with a 1000 micron fiber, which passed the light to an Ocean Optics QE65000 spectrometer. Spectra were integrated for 2 seconds. Arch WT and D95N both had emission maxima at 687 nm.
The fluorescence quantum yields of Arch WT and D95N were determined by comparing the integrated emission intensity to emission of a sample of the dye Alexa 647. Briefly, the concentrations of micromolar solutions of dye and protein were determined using a visible absorption spectrum. The extinction coefficients of 270,000 M^−1cm^−1 for Alexa 647 and 63,000 M^−1 cm^−1 for Arch WT and D95N were used, assuming that these microbial rhodopsins have the same extinction coefficient as bacteriorhodopsin. […] The fluorescence emission spectra of dye and protein samples were measured with 633 nm excitation. The quantum yield was then determined by the formula
where Fl is the integrated fluorescence from 660 to 760 nm, epsilon (∈) is the extinction coefficient at 633 nm and c is the concentration.

[4] = pKa of the Schiff base from absorption spectra versus pH; format: physicochemical; conditions: singular value decomposition on absorption spectra, pH 6-11
Method: FIG. 8C illustrates absorption spectra recorded on purified protein between about pH 6 and about pH 11. Singular Value Decomposition of absorption spectra between 400-750 nm was used to calculate the fraction of the SB in the protonated state as a function of pH. The result was fit to a Hill function to determine the pKa of the SB.
as §1

[5] = test system: HEK cells; assay: Step response of fluorescence to membrane potential steps; format: cell-based; conditions: for Approx response time: Table 2, described herein; for τresponse: determined from step-response
Method: The step response was measured in a similar manner, except that test waveforms consisted of a series of voltage pulses, from −70 mV to +30 mV with duration 300 ms and period 1 s. Cells were subjected to 20 repetitions of the waveform, and the fluorescence response was averaged over all iterations.

[6] = steps between −70 mV and +30 mV

Row | Molecule | Photostability relative to eGFP [1] | Photocurrent [2] | λmax em [3] [nm] | ε633 [3] | QY (fluorescence quantum yield) [3] | λmax abs [3] [nm] | pKa of SB [4] | Approx response time [5] [ms] | τresponse [5] [ms] | further results
1 | B1 | 0.25 | yes | 687 | 6,300 M^−1 cm^−1 | 9 × 10^−4 | 558 | 10.1 | <0.5 | < 0.5 | outward photocurrent induced by imaging laser ([2]; HEK cells, 640 nm): 10-20 pA; λmax em ([3]; listed as Arch): ≈ 687 nm; QY (fluorescence quantum yield) ([3]; listed as Arch): about 9×10^−4; time for 90% of step response [5]: < 0.5 ms
2 | B2 | 0.1 | no | 687 | 37,500 M^−1 cm^−1 | 4 × 10^−4 | 585 | 8.9 | 41 | 41 | photocurrent / proton pumping (words) [2]: lacked endogenous proton pumping; photocurrent / proton pumping (words) ([2]; listed as Arch 3 D95N): lacks photoinduced proton pumping; photocurrent / proton pumping (words) ([2]; listed as D95N): eliminated the photocurrent; λmax abs ([3]; listed as Arch^D95N): about 585 nm; λmax abs ([3]; listed as D95N): 585 nm; response time [5]: 41 ms; response time ([5]; listed as Arch 3 D95N): 40 ms; fast component of step response [5, 6]: < 500 μs; fraction of step response that is fast [5, 6]: about 20%; time constant of slow component of step response [5, 6]: 41 ms; fraction of step response that is fast ([5]; steps between −70 mV and +30 mV, listed as ArchD95N): 20%

Source: patent US20150004637A1, “SYSTEMS AND METHODS FOR IMAGING AT HIGH SPATIAL AND/OR TEMPORAL PRECISION” (President and Fellows of Harvard College, priority 2011, published 2015)
